Measurements: article PMC6803640, “Oligomeric state, hydrodynamic properties and target recognition of human Calcium and Integrin Binding protein 2 (CIB2)” (Scientific Reports, 2019)
Several values for one entry are separate records, joined by “and”; a condition that tells them apart may be missing. Equal values may be shown once.

Tests used:
[1] = molecular target: integrin αIIb peptide (Homo sapiens) (UniProt P08514); assay: SPR; conditions: cited from earlier work
[2] = molecular target: T1, human CIB2 (Homo sapiens, UniProt O75838); assay: Cross-linking (DSBU)/MALDI-TOF-MS of CIB2 with α7B peptides; assay type: binding; conditions: 10 µM CIB2, 5, 10, 20 µM peptide, 50-fold DSBU; 20 mM HEPES pH 7.5, 1 mM Mg^2+, 2 mM Ca^2+, room temperature
T1 construct: made in house
T1 sequence (O75838 1-187): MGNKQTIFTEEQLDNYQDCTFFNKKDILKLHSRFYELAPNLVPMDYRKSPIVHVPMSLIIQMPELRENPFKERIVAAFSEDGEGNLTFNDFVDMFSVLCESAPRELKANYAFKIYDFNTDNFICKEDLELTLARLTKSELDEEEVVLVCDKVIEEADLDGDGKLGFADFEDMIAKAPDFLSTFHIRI
Description: CIB2 samples were cross-linked with DSBU in the presence of peptide α7B_M or α7B_Scrb as described in ref.[14] Briefly, 10 µM CIB2 was diluted in 20 mM HEPES, pH 7.5, 1 mM DTT, 1 mM Mg^2+ and 2 mM Ca^2+ and incubated with increasing peptide concentrations (5 µM, 10 µM, and 20 µM) for 10 min at room temperature. Then, 50-fold molar excess of DSBU was added and the reactions were conducted for 20 min at room temperature. As control, CIB2 was treated with DSBU without peptide. Reactions were blocked by adding ammonium bicarbonate to a final concentration of 20 mM.
Cross-linked CIB2 samples were desalted via ZipTip C4 tips (Millipore) before MALDI-TOF-MS analysis (Ultraflex III MALDI-TOF/TOF mass spectrometer, Bruker Daltonik, Bremen) was conducted using sinapinic acid as matrix. For further details see Supplementary Methods. Baseline subtraction and spectra smoothing were performed. […]
Cross-linking reactions and Mass Spectrometry
Cross-linking reactions were performed with 10 µM CIB2 (in 20 mM HEPES pH 7.5, 150 mM KCl, 1 mM DTT, 1 mM Mg2+, 2 mM Ca2+) and increasing concentrations of peptides α7B_M and α7B_Scrb, ranging from 0.5:1 to 2:1 peptide:protein ratios. After incubating the samples for 10 minutes at room temperature, DSBU (freshly prepared solution, dissolved in neat DMSO) was added to the mixture at 50-fold molar excess compared to CIB2 concentration. As the final volume of the reaction mixture was 50 µL, 1 µL of 25 mM DSBU was added to each sample. After 20 minutes, the cross-linking reactions were quenched by adding ammonium bicarbonate to a final concentration of 20 mM. Samples were incubated for 10 minutes before SDS-PAGE analysis was performed (data not shown). Samples for MALDI-TOF-MS measurements were desalted by ZipTip C4 (Millipore) and desalted protein was eluted with 70% (v/v) acetonitrile / 1% (v/v) formic acid. Each sample was mixed with a saturated solution of sinapinic acid (in 50% (v/v) methanol / 0.1% (v/v) TFA) at 1:1 ratio and spotted onto the MALDI target. […]

[3] = molecular target: T1, human CIB2; assay: SPR interaction of α7B peptides with immobilized CIB2; assay type: binding; conditions: His-CIB2 capture (7.5 µM peptide, or 230 nM–30 μM) and amine-coupled untagged CIB2 (7.5–30 µM); 1 mM Mg^2+, 2 mM Ca^2+; experiments repeated 4 times
Text: SPR was also used to study quantitatively the interaction of CIB2 with one of its established targets, namely the cytoplasmic domain of integrin α7B[3],[7]. Three different peptides were used in the interaction experiments. A peptide corresponding to the membrane proximal segment of the cytoplasmic domain of α7B integrin (α7B_M), another peptide with the same amino acid content, but randomized sequence (α7B_Scrb) and a peptide covering the C-terminal region of the cytoplasmic domain of α7B integrin (α7B_C). Three different approaches were used. In a first approach, His-tagged CIB2 was initially coupled to the surface of a His-cap sensor chip (see Methods), thus ensuring homogeneous site-specific orientation, and then blocked via standard amine coupling. […] The minor differences in the spectra at the level of the phenylalanine band can be ascribed to the TEV-protease recognition site (ENLYFQ), uncleaved in the His-tagged protein. […] In a third approach, we used the same low levels of CIB2 immobilization via amine coupling described in the experiments to probe CIB2 dimerization (100–200 RU) and flowed the three peptides.
The second approach (direct peptide immobilization) led to very low signals and unreproducible results and was not pursued any further. […] In spite of such differences, which might reflect both the heterogeneity of the surface and the different chemistry of immobilization, interaction results were consistent with one another. […] It should be noted that both Huang et al.[7] and Häger et al.[3] used peptides from mouse integrin, while we used the corresponding human sequences, which in the case of α7B_C lacks the tryptophan residue present in the mouse sequence. It is not uncommon that fluorescence spectroscopy interaction studies based on the peptide intrinsic fluorescence (CIB2 has no tryptophan residue) reveal some non-specific binding, especially when a highly hydrophobic protein such as CIB2 is the ligand. […] It cannot be excluded that a similar phenomenon occurred for murine α7B_C in the work by Häger et al.[3]. Our present results, based on accurate, label-free interaction studies clearly identify the region covered by α7B_M as the preferential binding site of CIB2 with α7B integrin.
SPR titrations of α7B_M over homogeneously coupled CIB2 (approach 1) gave very reproducible results and were performed both in the presence of 1 mM Mg^2+ and in the co-presence of 1 mM Mg^2+ and 2 mM Ca^2+. Peptide concentration was varied in the 230 nM–30 μM range. As anticipated, sensorgrams could not fit to a 1:1 binding model, and the kinetic model that better fit the data was a bivalent analyte model (see Methods), in which one α7B_M peptide could bind to two CIB2 molecules. According to this scheme, binding of the peptide to the first CIB2 molecule would direct the binding to the second one, thus resulting in two sets of kinetic constants.
Details of the protein and peptide immobilization procedures and experimental settings are elucidated in the Supplementary Information.
Kinetic data were fitted according to a bivalent analyte model, were a CIB2 monomer (L) can bind an α7B_M peptide (A), and the resulting complex (AL) can bind to a second CIB2 molecule (AL2), with all processes being possibly reversible, as follows: A+L→ka1ALAL→kd1A+LAL+L→ka2AL2AL2→kd2AL+L […]

[4] = test system: CIB2; conditions: peptide intrinsic fluorescence; cited from earlier work
Text: In a recent study[8] we investigated the capability of CIB2 to bind Ca^2+ and Mg^2+ thereby switching to a functionally distinct structural state. By integrating several biochemical and biophysical techniques we could establish that in the absence of any cation CIB2 forms a molten globule state that essentially lacks tertiary structure. […] This is quite unusual for Ca^2+-sensor pro ... || The second approach (direct peptide immobilization) led to very low signals and unreproducible results and was not pursued any further. […] In spite of such differences, which might ... || Interaction with α7B occurs in the region proximal to the membrane and not close to the C-terminus of the cytosolic domain of the integrin. The recognition between CIB2 and the α7B target is kinetically favored in the presence of physiological Mg^2+ and in the absence of Ca^2+ and it might induce binding of another CIB2 molecule. […] However, CIB2 per se binds a single peptide as a monomer, and the complex could then induce CIB2 dimerization, ...

[5] = molecular target: integrin α7B peptide (Homo sapiens, UniProt Q13683, Mg2+); assay: SPR
[6] = molecular target: integrin α7B peptide (Homo sapiens, UniProt Q13683, Mg2+ and Ca2+); assay: SPR
[7] = molecular target: T2, His-tagged CIB2, human (TEV protease recognition site and His tag kept) (human, UniProt O75838 1-187); assay: SPR; His-tagged CIB2 captured by its His tag on a His-cap chip, then blocked via amine coupling; peptides injected (7.5 µM; α7B_M titrated 230 nM-30 µM); 20 mM HEPES pH 7.5, 150 mM KCl, 1 mM DTT, 1 mM Mg2+, 2 mM Ca2+, 50 µM EDTA, 0.005% Tween; bivalent analyte model and steady state analysis; apparent constants; conditions: both partners purified
T2 construct: It was used only in the SPR experiments where CIB2 was captured by its His tag; also called His-CIB2
T2 sequence (looked up): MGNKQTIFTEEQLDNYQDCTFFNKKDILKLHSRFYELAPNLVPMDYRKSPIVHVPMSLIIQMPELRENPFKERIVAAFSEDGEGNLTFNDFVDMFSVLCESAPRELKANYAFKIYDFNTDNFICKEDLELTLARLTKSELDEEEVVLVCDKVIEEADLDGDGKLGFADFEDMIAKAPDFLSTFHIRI

[8] = molecular target: T3, Calcium- and Integrin-Binding protein 2 (CIB2), human, untagged (human, UniProt O75838 1-187); assay: cross-linking; 10 µM CIB2 incubated with 5, 10 or 20 µM peptide, then 50-fold molar excess of DSBU for 20 min at room temperature; 20 mM HEPES pH 7.5, 1 mM DTT, 1 mM Mg2+, 2 mM Ca2+; read by MALDI-TOF-MS of the intact protein; conditions: both partners purified
T3 construct: measured mass 21,767 Da by native ESI-MS; The printed mass (21.7 kDa) fits the whole protein; Residues may remain after TEV cleavage of the His tag; also called untagged CIB2; uncoupled CIB2
T3 sequence (looked up): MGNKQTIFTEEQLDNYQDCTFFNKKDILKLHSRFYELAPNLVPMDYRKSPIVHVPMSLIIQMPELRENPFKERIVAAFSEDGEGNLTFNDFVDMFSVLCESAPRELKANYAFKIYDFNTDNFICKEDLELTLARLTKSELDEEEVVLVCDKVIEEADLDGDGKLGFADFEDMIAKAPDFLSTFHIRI

[9] = molecular target: T2, His-tagged CIB2, human (TEV protease …); assay: SPR; His-tagged CIB2 captured by its His tag on a His-cap chip, then blocked via amine coupling; α7B_M titrated 230 nM-30 µM in the presence of 1 mM Mg2+ without Ca2+; bivalent analyte model and steady state analysis; apparent constants; conditions: both partners purified
[10] = test system: CIB2; assay: Near-UV circular dichroism; assay type: physicochemical, human; conditions: 20-30 µM, 37 °C, EGTA, 1 mM Mg^2+, 2 mM Ca^2+; 20 mM HEPES pH 7.5
Description: CIB2 tertiary structure was investigated by using a Jasco J-710 spectropolarimeter equipped with a Peltier type cell holder as previously described. Briefly: near-UV (250–320 nm) CD spectra of 20 μM of sole CIB2 or CIB2/α7B_M complexes (1:1 and 1:2 ratios) were collected in the presence of 500 μM EGTA and after sequential additions of 1 mM Mg^2+ and 2 mM free Ca^2+. A 1 cm quartz cuvette was used, temperature was set at 37 °C, integration time and data pitch were set to 4 s and 1 nm, respectively. Each spectrum represents the average of 5 accumulations. […]
Figure S4: Structural comparison of His-CIB2 (A) and CIB2 (B). Near-UV CD spectra (250-320 nm) of 20-30 µM CIB2 were collected at 37°C in a quartz cuvette with 1 cm length path. Sequential additions of 500 µM EGTA (black), 1 mM Mg2+ (blue) and 2 mM Ca2+ (red) were performed. Near-UV CD spectra of the buffer (20 mM HEPES pH 7.5, 150 mM KCl, 1 mM DTT) was considered as blank and subtracted. Each spectrum represents the mean of 5 accumulations. Data were normalized according to the protein concentration and the number of residues (Molar Residue Ellipticity, MRE).
Figure S5: Near-UV CD spectra of CIB2 in the presence of different stoichiometric ratios of alpha7B_M peptide. Near-UV CD spectra (250-320nm) of 20 μM CIB2 in the absence of peptide (black lines) and in the presence of two different protein/peptide ratios (1:1 blue lines; 1:2 red lines) collected at 37°C in the presence of 500 μM EGTA (A) and after sequential additions of 1 mM Mg2+ (B) and 2 mM free Ca2+ (C). The spectrum of alpha7B_M peptide in the absence of CIB2 is shown in dashed grey lines. […]

integrin αIIb peptide (Homo sapiens), sequence (P08514 1014-1039): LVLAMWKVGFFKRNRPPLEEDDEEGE

For CIB1 (from UniProt Q99828), the Kd [1] is listed as 12 µM.

In the case of KEFWGLHAKPRLKLMF [α7B_Scrb], the “CIB2/peptide complex formation, 1:1” value [2] is given as “only minor signals for a 1:1 complex”, the “SPR interaction with CIB2” value [3] is given as “interact with low affinity” and the “fluorescence titration of CIB2” value [4] is given as “some non-specific signal”.

For “LAADGHPELGPDGHPGPGTA [α7B_C, peptide covering the C-terminal region of the cytoplasmic domain of α7B integrin]”, the “SPR interaction with CIB2” value [3] was “could not detect any interaction”.

B1: CIB2 (protein)
chain: MGNKQTIFTEEQLDNYQDCTFFNKKDILKLHSRFYELAPNLVPMDYRKSPIVHVPMSLIIQMPELRENPFKERIVAAFSEDGEGNLTFNDFVDMFSVLCESAPRELKANYAFKIYDFNTDNFICKEDLELTLARLTKSELDEEEVVLVCDKVIEEADLDGDGKLGFADFEDMIAKAPDFLSTFHIRI
In the case of B1, the Kd [5] is reported as 11.6 µM and the Kd [6] is reported as 25 µM.

B2: α7B_M peptide, membrane proximal segment of the cytoplasmic domain of α7B integrin (peptide)
peptide: Ac-LLLWKMGFFKRAKHPE-NH2
notes: integrin α7B, human, membrane proximal segment of the cytoplasmic domain; also called α7B peptide; source: synthetic peptide, bought: Genscript
With B2 the Kd [7] was 154 µM, the “stoichiometry N” value [8] was 1 peptide per CIB2 and 2 peptides per CIB2 and the Kd [9] was 210 µM.

B3: His-tagged CIB2: CIB2 with the TEV protease recognition site and the Histag kept (protein)
chain: MGNKQTIFTEEQLDNYQDCTFFNKKDILKLHSRFYELAPNLVPMDYRKSPIVHVPMSLIIQMPELRENPFKERIVAAFSEDGEGNLTFNDFVDMFSVLCESAPRELKANYAFKIYDFNTDNFICKEDLELTLARLTKSELDEEEVVLVCDKVIEEADLDGDGKLGFADFEDMIAKAPDFLSTFHIRI
modifications: left off: His tag, end not stated, kept | TEV protease recognition site (ENLYFQ), end not stated, kept
With B3 the “near-UV CD, tertiary structure vs untagged CIB2” value [10] was “substantially the same tertiary structure of the untagged protein”.
